Laboratory results published in the DeepSol protein solubility set.

Experiment: soluble on expression in E. coli; label from the status in PepcDB or PDB records
With “MSLDIKRVLKAAPTKMRSREPLQQLWTPWGERIEHEWLSARAGNKAFNPAEEGERTLDEGRTPILGEHPRPTMVRDNCTMLNGWWDYAIVSIPEDETAPKWRKTAAMLTRDEAVRAVKETAIPQTFDGKILVPFSPESALSGVHQTIYPDNLLWYRTVVHPVTLGGEETVRQIGDANRLILHFEAVDYVCACYVNGQLAGTHVGGYLPFDVDISAFIDPDDAFEIALCVYDPNDSGTQLRGKQKIEREGIWYTAQSGIWQSVWLEIVPEAYLRTLTLKGASDGKLFVRAEIGGDKPNAKLHIVVTDPADGTVVADETLPAGVRKVRAEIATAAEHLWSPADPYLYDVRAELRYGSAKPAETAGDAAVVQSQPMDVVSSYCAFRSVEIKPDTKGVARFHLNGKPLFVKGVLDQGYWPDGLMTAPDDEALTHDITAMKNAGFNMLRKHIKIESARWYYHCDRLGMLVWQDAVSGGGTDGEYNAWTTNRKPTLIRSTWNKFRDDTAKHFTALGADDPIYRRDWSRTCDAMVHMLGGHPSIVTWTLFNEGWGQFDACDATERIHALDPTRPIDATSGWYDQHCGDYHSVHNYFRPLEIYPDKGPLRGYVAEFEKKHRRRRRAAHYVVLPVARHGVRAFVISEFGGLAQLVPEHAAVSRAYGYGEYDSIDDWRAAVRSVLASAAALESRGLAGYVYTQVSDVEEELNGLLTYDRRVDKFAEEGHHHHHH” the “soluble on expression in E. coli” value was “soluble”.
In the case of “MSLDIQPFSMPLSSPLSTADGTIESRRGFLVRTEIDGVAGVGEAAPLPGWTESYDACQAALCGVEKPKQALEDNVFDDTPAARHAVSLAVADAAARRAGVPLYRRLGAGERVESVPVNATVGDGSPSATAEAVADAAAAGFPAAKVKVGNRSLDADIERIEAVRQRYPDIELRVDANGAWEFETAREAVESMSALGVAVLEQPLPAEALDNHRRLRGHGIDIALDEGLLRHGVDAAIAAEAADCLVCKPMALGGVDIARSAAERARADGWDVIVTTTIDGVVARAAAVHLAASVPDVRPCGLATGGRLASDVGPDAAPVSDGTAAVPQGKGNIPPLEGHHHHHH”, the “soluble on expression in E. coli” value is reported as “soluble”.
In the case of “MSLDKLQRISEAIKSKKKLVVMFSGGVDSTLLAKLAREVLGKNAVALTIDSPVIPRKEIEEAKNLANLIGIRHEFIELNELKSRHLIENPPDRCYLCRKLRDNIVKNWARENGFDVIADGLNFSDLQDYRPGVKASTEDGIWHPFIDFEVTKEEIREYSKKLGLPTWDKPAMACLCSRFPYGFGLNEERVRMVEKAENFLRELGFREVRVRFFPYKTAVVEVGRDEMELLMGKRTDIVLALQKIGFSFVTLDLEGFASGKLNRTIEGMSKEGGSHHHHHH”, the “soluble on expression in E. coli” value is reported as “soluble”.
For “MSLDKPVIKISTENVDLIYRVGDNGRLYQSYLGKRLNHATDIAHLPQGSEAYLTHGMEDYFEPAIHIVHNDGNPSTLLKYVSHTRNQVSPGVDEVVITMQDDKYPVTVKLHYVAYQKENLIKTFTEISHREKKPVQLHKYASSMLHLNRANYFLTEFSGDWASEAHVKEQPLEFGKKTIDTKLGARANMFCSPFFQLALDGKSEENQGEVLVGTLGWTGNFSFVFEVDNKNELRVISGINPYASEYSLKPNEIFRTPDFYFTYSFKGKGQASRNFHDWARKYQVKDGNQTRMTLLNNWEATYFDFDEAKLVKLMDDAVELGVDMFLLDDGWFANKYPRSGDHQGLGDWDETADKLPHGIGYLTEAAKKKGIKFGIWIEPEMVNPKSELYEKHKDWVIHLPNRDEYYFRNQLVLDLSNPKVQDYVFGVVDNLMTKYPDIAFFKWDCNSPITNIYSVYLKDKQSHLYIDYVRGLYNVLERVKAKYPDLPMMLCSGGGGRSDYEALSYFTEFWPSDNTDPIERLFIQWGFSQVFPAKTMCAHVTTWNKNSSVKFRTDVAMMCKLGFDIKLADMSKDDETYCRTAVQNYNRLKPVVLEGDMYRLVSPYGSNHTSTMYVGKDKDKAVVFAFDIHPRYAEKILPVRLQGLDADKMYRVKEINLMPGANSSLSGNGEVFSGEFLMNVGLNLFTTQQLNSRVIEVVAEGHHHHHH”, the “soluble on expression in E. coli” value was “soluble”.
